The values below come from the supplement of paper PMC5998384.

Series [1] relates to HeLa Kyoto. Nature of the series: solubility in G1/S (NP-40 vs SDS abundance) (log2 ratio); higher = more soluble. To be noted: cell cycle stage: G1/S.
In series [2] the test system is HeLa Kyoto. As to the kind of experiment: solubility change mitosis vs G1/S (difference of NP-40 vs SDS log2 ratios) (log2 ratio difference); higher = more soluble in mitosis.
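For solubility change mitosis vs G1/S (difference of NP-40 vs SDS log2 ratios) in this document: synchronized HeLa Kyoto cells (double thymidine block for G1/S, nocodazole release for mitosis), protein amounts in NP-40 versus SDS lysates quantified by mass spectrometry, three biological replicates.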
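For solubility in G1/S (NP-40 vs SDS abundance) in this document: HeLa Kyoto cells arrested at G1/S by double thymidine block, proteins quantified by TMT10plex mass spectrometry in mild NP-40 versus SDS extracts, three biological replicates.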

With “MNYVGQLAGQVFVTVKELYKGLNPATLSGCIDIIVIRQPNGNLQCSPFHVRFGKMGVLRSREKVVDIEINGESVDLHMKLGDNGEAFFVQETDNDQEVIPMHLATSPILSEGASRMECQLKRGSVDRMRGLDPSTPAQVIAPSETPSSSSVVKKRRKRRRKSQLDSLKRDDNMNTSEDEDMFPIEMSSDEAMELLESSRTLPNDIPPFQDDIPEENLSLAVIYPQSASYPNSDREWSPTPSPSGSRPSTPKSDSELVSKSTERTGQKNPEMLWLWGELPQAAKSSSPHKMKESSPLSSRKICDKSHFQAIHSESSDTFSDQSPTLVGGALLDQNKPQTEMQFVNEEDLETLGAAAPLLPMIEELKPPSASVVQTANKTDSPSRKRDKRSRHLGADGVYLDDLTDMDPEVAALYFPKNGDPSGLAKHASDNGARSANQSPQSVGSSGVDSGVESTSDGLRDLPSIAISLCGGLSDHREITKDAFLEQAVSYQQFVDNPAIIDDPNLVVKIGSKYYNWTTAAPLLLAMQAFQKPLPKATVESIMRDKMPKKGGRWWFSWRGRNTTIKEESKPEQCLAGKAHSTGEQPPQLSLATRVKHESSSSDEERAAAKPSNAGHLPLLPNVSYKKTLRLTSEQLKSLKLKNGPNDVVFSVTTQYQGTCRCEGTIYLWNWDDKVIISDIDGTITRSDTLGHILPTLGKDWTHQGIAKLYHKVSQNGYKFLYCSARAIGMADMTRGYLHWVNERGTVLPQGPLLLSPSSLFSALHREVIEKKPEKFKVQCLTDIKNLFFPNTEPFYAAFGNRPADVYSYKQVGVSLNRIFTVNPKGELVQEHAKTNISSYVRLCEVVDHVFPLLKRSHSSDFPCSDTFSNFTFWREPLPPFENQDIHSASA [LPIN1]”, the “solubility in G1/S (log2)” value in series [1] stood at 0.0583. Besides, in series [2], the “solubility change mitosis (log2)” value is -0.0904.
On the same counts, the results for “MYFLSGWPKRLLCPLGSPAEAPFHVQSDPQRAFFAVLAAARLSIWYSRPSVLIVTYKEPAKSSTQFGSYKQAEWRPDSTMIAVSTANGYILFFHITSTRGDKYLYEPVYPKGSPQMKGTPHFKEEQCAPALNLEMRKILDLQAPIMSLQSVLEDLLVATSDGLLHLIHWEGMTNGRKAINLCTVPFSVDLQSSRVGSFLGFTDVHIRDMEYCATLDGFAVVFNDGKVGFITPVSSRFTAEQLHGVWPQDVVDGTCVAVNNKYRLMAFGCVSGSVQVYTIDNSTGAMLLSHKLELTAKQYPDIWNKTGAVKLMRWSPDNSVVIVTWEYGGLSLWSVFGAQLICTLGGDFAYRSDGTKKDPLKINSMSWGAEGYHLWVISGFGSQNTEIESDLRSVVKQPSILLFQFIKSVLTVNPCMSNQEQVLLQGEDRLYLNCGEASQTQNPRSSSTHSEHKPSREKSPFADGGLESQGLSTLLGHRHWHVVQISSTYLESNWPIRFSAIDKLGQNIAVVGKFGFAHYSLLTKKWKLFGNITQEQNMIVTGGLAWWNDFMVLACYNINDRQEELRVYLRTSNLDNAFAHVTKAQAETLLLSVFQDMVIVFRADCSICLYSIERKSDGPNTTAGIQVLQEVSMSRYIPHPFLVVSVTLTSVSTENGITLKMPQQARGAESIMLNLAGQLIMMQRDRSGPQIREKDSNPNNQRKLLPFCPPVVLAQSVENVWTTCRANKQKRHLLEALWLSCGGAGMKVWLPLFPRDHRKPHSFLSQRIMLPFHINIYPLAVLFEDALVLGAVNDTLLYDSLYTRNNAREQLEVLFPFCVVERTSQIYLHHILRQLLVRNLGEQALLLAQSCATLPYFPHVLELMLHEVLEEEATSREPIPDPLLPTVAKFITEFPLFLQTVVHCARKTEYALWNYLFAAVGNPKDLFEECLMAQDLDTAASYLIILQNMEVPAVSRQHATLLFNTALEQGKWDLCRHMIRFLKAIGSGESETPPSTPTAQEPSSSGGFEFFRNRSISLSQSAENVPASKFSLQKTLSMPSGPSGKRWSKDSDCAENMYIDMMLWRHARRLLEDVRLKDLGCFAAQLGFELISWLCKERTRAARVDNFVIALKRLHKDFLWPLPIIPASSISSPFKNGKYRTVGEQLLKSQSADPFLNLEMDAGISNIQRSQSWLSNIGPTHHEIDTASSHGPQMQDAFLSPLSNKGDECSIGSATDLTESSSMVDGDWTMVDENFSTLSLTQSELEHISMELASKGPHKSQVQLRYLLHIFMEAGCLDWCIVIGLILRESSIINQILVITQSSEVDGEMLQNIKTGLHAVDRWASTDCPGYKPFLNIIKPQLQKLSEITEEQVQPDAFQPITMGKTPEQTSPRAEESRGSSSHGSIPQGEVGSSNMVSRKEEDTAQAEEEEPFQDGTYDCSVS [RIC1]” are -0.168 and 0.129.
In the same order, the values of “MADFEELRNMVSSFRVSELQVLLGFAGRNKSGRKHDLLMRALHLLKSGCSPAVQIKIRELYRRRYPRTLEGLSDLSTIKSSVFSLDGGSSPVEPDLAVAGIHSLPSTSVTPHSPSSPVGSVLLQDTKPTFEMQQPSPPIPPVHPDVQLKNLPFYDVLDVLIKPTSLVQSSIQRFQEKFFIFALTPQQVREICISRDFLPGGRRDYTVQVQLRLCLAETSCPQEDNYPNSLCIKVNGKLFPLPGYAPPPKNGIEQKRPGRPLNITSLVRLSSAVPNQISISWASEIGKNYSMSVYLVRQLTSAMLLQRLKMKGIRNPDHSRALIKEKLTADPDSEIATTSLRVSLMCPLGKMRLTIPCRAVTCTHLQCFDAALYLQMNEKKPTWICPVCDKKAAYESLILDGLFMEILNDCSDVDEIKFQEDGSWCPMRPKKEAMKVSSQPCTKIESSSVLSKPCSVTVASEASKKKVDVIDLTIESSSDEEEDPPAKRKCIFMSETQSSPTKGVLMYQPSSVRVPSVTSVDPAAIPPSLTDYSVPFHHTPISSMSSDLPGLDFLSLIPVDPQYCPPMFLDSLTSPLTASSTSVTTTSSHESSTHVSSSSSRSETGVITSSGSNIPDIISLD [PIAS2]” are 0.155 and -0.0526.
In the same order, the values of “MPGRHVSRVRALYKRVLQLHRVLPPDLKSLGDQYVKDEFRRHKTVGSDEAQRFLQEWEVYATALLQQANENRQNSTGKACFGTFLPEEKLNDFRDEQIGQLQELMQEATKPNRQFSISESMKPKF [SDHAF3]” are 0.106 and 0.134.
As to DOCK4, in series [1], the “solubility in G1/S (log2)” value is -0.259. For the same substance, the “solubility change mitosis (log2)” value in series [2] was 0.0146.
With “MNRSRAIVQRGRVLPPPAPLDTTNLAGRRTLQGRAKMASVPVYCLCRLPYDVTRFMIECDMCQDWFHGSCVGVEEEKAADIDLYHCPNCEVLHGPSIMKKRRGSSKGHDTHKGKPVKTGSPTFVRELRSRTFDSSDEVILKPTGNQLTVEFLEENSFSVPILVLKKDGLGMTLPSPSFTVRDVEHYVGSDKEIDVIDVTRQADCKMKLGDFVKYYYSGKREKVLNVISLEFSDTRLSNLVETPKIVRKLSWVENLWPEECVFERPNVQKYCLMSVRDSYTDFHIDFGGTSVWYHVLKGEKIFYLIRPTNANLTLFECWSSSSNQNEMFFGDQVDKCYKCSVKQGQTLFIPTGWIHAVLTPVDCLAFGGNFLHSLNIEMQLKAYEIEKRLSTADLFRFPNFETICWYVGKHILDIFRGLRENRRHPASYLVHGGKALNLAFRAWTRKEALPDHEDEIPETVRTVQLIKDLAREIRLVEDIFQQNVGKTSNIFGLQRIFPAGSIPLTRPAHSTSVSMSRLSLPSKNGSKKKGLKPKELFKKAERKGKESSALGPAGQLSYNLMDTYSHQALKTGSFQKAKFNITGACLNDSDDDSPDLDLDGNESPLALLMSNGSTKRVKSLSKSRRTKIAKKVDKARLMAEQVMEDEFDLDSDDELQIDERLGKEKATLIIRPKFPRKLPRAKPCSDPNRVREPGEVEFDIEEDYTTDEDMVEGVEGKLGNGSGAGGILDLLKASRQVGGPDYAALTEAPASPSTQEAIQGMLCMANLQSSSSSPATSSLQAWWTGGQDRSSGSSSSGLGTVSNSPASQRTPGKRPIKRPAYWRTESEEEEENASLDEQDSLGACFKDAEYIYPSLESDDDDPALKSRPKKKKNSDDAPWSPKARVTPTLPKQDRPVREGTRVASIETGLAAAAAKLAQQELQKAQKKKYIKKKPLLKEVEQPRPQDSNLSLTVPAPTVAATPQLVTSSSPLPPPEPKQEALSGSLADHEYTARPNAFGMAQANRSTTPMAPGVFLTQRRPSVGSQSNQAGQGKRPKKGLATAKQRLGRILKIHRNGKLLL [PHF8]”, the “solubility in G1/S (log2)” value in series [1] is -0.765. In addition, the “solubility change mitosis (log2)” value in series [2] was 0.336.
